Measured values reported in IntAct's records for PubMed 29263825.

B1: Cohesin subunit SA-2 (Homo sapiens), Q8N3U4 (parent)
chain: MIAAPEIPTDFNLLQESETHFSSDTDFEDIEGKNQKQGKGKTCKKGKKGPAEKGKGGNGGGKPPSGPNRMNGHHQQNGVENMMLFEVVKMGKSAMQSVVDDWIESYKHDRDIALLDLINFFIQCSGCKGVVTAEMFRHMQNSEIIRKMTEEFDEDSGDYPLTMAGPQWKKFKSSFCEFIGVLVRQCQYSIIYDEYMMDTVISLLTGLSDSQVRAFRHTSTLAAMKLMTALVNVALNLSINMDNTQRQYEAERNKMIGKRANERLELLLQKRKELQENQDEIENMMNAIFKGVFVHRYRDAIAEIRAICIEEIGIWMKMYSDAFLNDSYLKYVGWTMHDKQGEVRLKCLTALQGLYYNKELNSKLELFTSRFKDRIVSMTLDKEYDVAVQAIKLLTLVLQSSEEVLTAEDCENVYHLVYSAHRPVAVAAGEFLYKKLFSRRDPEEDGMMKRRGRQGPNANLVKTLVFFFLESELHEHAAYLVDSMWDCATELLKDWECMNSLLLEEPLSGEEALTDRQESALIEIMLCTIRQAAECHPPVGRGTGKRVLTAKEKKTQLDDRTKITELFAVALPQLLAKYSVDAEKVTNLLQLPQYFDLEIYTTGRLEKHLDALLRQIRNIVEKHTDTDVLEACSKTYHALCNEEFTIFNRVDISRSQLIDELADKFNRLLEDFLQEGEEPDEDDAYQVLSTLKRITAFHNAHDLSKWDLFACNYKLLKTGIENGDMPEQIVIHALQCTHYVILWQLAKITESSSTKEDLLRLKKQMRVFCQICQHYLTNVNTTVKEQAFTILCDILMIFSHQIMSGGRDMLEPLVYTPDSSLQSELLSFILDHVFIEQDDDNNSADGQQEDEASKIEALHKRRNLLAAFCKLIVYTVVEMNTAADIFKQYMKYYNDYGDIIKETMSKTRQIDKIQCAKTLILSLQQLFNEMIQENGYNFDRSSSTFSGIKELARRFALTFGLDQLKTREAIAMLHKDGIEFAFKEPNPQGESHPPLNLAFLDILSEFSSKLLRQDKRTVYVYLEKFMTFQMSLRREDVWLPLMSYRNSLLAGGDDDTMSVISGISSRGSTVRSKKSKPSTGKRKVVEGMQLSLTEESSSSDSMWLSREQTLHTPVMMQTPQLTSTIMREPKRLRPEDSFMSVYPMQTEHHQTPLDYNRRGTSLMEDDEEPIVEDVMMSSEGRIEDLNEGMDFDTMDIDLPPSKNRRERTELKPDFFDPASIMDESVLGVSMF
partner: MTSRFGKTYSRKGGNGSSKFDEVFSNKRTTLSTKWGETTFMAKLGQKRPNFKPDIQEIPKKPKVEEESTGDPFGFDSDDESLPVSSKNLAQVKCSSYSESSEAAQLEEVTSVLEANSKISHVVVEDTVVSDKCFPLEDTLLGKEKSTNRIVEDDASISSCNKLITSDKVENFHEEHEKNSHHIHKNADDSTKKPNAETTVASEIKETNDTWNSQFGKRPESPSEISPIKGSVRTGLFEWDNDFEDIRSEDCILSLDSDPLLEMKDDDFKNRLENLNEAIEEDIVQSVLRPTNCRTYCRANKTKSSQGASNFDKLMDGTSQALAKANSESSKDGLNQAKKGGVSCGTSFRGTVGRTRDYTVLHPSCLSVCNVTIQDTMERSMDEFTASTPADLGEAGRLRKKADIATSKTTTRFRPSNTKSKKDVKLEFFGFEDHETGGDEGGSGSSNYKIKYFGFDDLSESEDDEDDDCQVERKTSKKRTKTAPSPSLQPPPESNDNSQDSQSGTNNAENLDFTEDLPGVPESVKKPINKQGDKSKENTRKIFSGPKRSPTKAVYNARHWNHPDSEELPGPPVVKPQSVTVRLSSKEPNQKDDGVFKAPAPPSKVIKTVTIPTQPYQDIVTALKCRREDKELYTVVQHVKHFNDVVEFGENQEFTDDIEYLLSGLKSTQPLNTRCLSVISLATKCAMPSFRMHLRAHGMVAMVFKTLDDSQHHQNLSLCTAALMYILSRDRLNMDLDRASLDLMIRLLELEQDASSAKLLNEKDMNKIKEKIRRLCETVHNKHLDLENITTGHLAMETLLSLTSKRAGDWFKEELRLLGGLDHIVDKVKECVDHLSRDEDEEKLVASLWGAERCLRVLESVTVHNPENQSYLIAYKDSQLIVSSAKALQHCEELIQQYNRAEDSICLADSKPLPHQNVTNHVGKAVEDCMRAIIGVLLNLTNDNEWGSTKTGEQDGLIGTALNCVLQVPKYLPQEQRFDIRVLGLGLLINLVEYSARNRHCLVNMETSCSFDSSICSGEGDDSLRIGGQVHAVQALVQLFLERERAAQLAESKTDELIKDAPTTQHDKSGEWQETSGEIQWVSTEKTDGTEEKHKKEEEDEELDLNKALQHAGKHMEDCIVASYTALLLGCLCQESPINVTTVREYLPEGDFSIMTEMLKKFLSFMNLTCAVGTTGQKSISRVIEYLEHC
B2: Cohesin subunit SA-2 (Homo sapiens), Q8N3U4 (parent)
chain: B1 chain
B3: Cohesin subunit SA-2 (Homo sapiens), Q8N3U4 (parent)
chain: B1 chain
partner: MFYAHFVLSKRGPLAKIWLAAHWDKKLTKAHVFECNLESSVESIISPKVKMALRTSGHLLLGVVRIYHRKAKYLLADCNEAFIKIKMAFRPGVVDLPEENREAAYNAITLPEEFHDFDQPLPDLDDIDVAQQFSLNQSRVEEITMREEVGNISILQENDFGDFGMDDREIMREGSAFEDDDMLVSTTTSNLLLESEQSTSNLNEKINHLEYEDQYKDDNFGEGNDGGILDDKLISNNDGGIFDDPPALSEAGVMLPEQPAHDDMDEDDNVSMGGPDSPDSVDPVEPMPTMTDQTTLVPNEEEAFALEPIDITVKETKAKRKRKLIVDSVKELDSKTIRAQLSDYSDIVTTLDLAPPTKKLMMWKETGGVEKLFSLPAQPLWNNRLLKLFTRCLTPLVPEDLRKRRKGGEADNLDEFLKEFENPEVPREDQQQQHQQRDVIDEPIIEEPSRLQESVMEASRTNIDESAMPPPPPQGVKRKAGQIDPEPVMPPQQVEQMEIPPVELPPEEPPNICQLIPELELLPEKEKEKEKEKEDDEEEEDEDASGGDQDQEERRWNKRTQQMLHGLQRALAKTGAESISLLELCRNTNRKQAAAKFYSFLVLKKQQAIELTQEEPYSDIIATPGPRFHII

Variants of: B1
Details: with wapl_human WAPL

Variant	effect of a mutation on the interaction
S327N	with no effect
K330E	decreasing interaction

Variants of: B2
Details: with sgo1_human SGO1, Q5FBB7
Sequence of sgo1_human SGO1, Q5FBB7 (Q5FBB7 whole entry): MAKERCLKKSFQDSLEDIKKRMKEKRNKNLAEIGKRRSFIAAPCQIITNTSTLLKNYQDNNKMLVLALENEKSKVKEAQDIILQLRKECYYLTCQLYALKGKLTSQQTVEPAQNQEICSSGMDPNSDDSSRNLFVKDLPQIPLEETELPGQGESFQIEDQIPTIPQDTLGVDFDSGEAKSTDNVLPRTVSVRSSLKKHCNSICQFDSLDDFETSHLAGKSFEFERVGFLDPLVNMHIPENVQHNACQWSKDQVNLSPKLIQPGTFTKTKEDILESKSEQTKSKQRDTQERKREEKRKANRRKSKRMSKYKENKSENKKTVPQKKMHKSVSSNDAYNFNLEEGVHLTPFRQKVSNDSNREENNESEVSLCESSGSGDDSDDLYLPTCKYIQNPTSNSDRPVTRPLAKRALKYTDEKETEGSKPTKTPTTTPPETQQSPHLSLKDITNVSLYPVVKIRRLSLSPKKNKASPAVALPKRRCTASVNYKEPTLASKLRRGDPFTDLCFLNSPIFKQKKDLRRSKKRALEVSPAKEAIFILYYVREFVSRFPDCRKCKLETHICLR

Variant	effect of a mutation on the interaction
S327N	decreasing interaction
K330E	disrupting interaction

Variants of: B3
Details: with rad21_human RAD21, O60216

Variant	effect of a mutation on the interaction
S327N	with no effect
